Test results: patent publication US20060014678A1 (IMPERIAL INNOVATIONS, published 2006)
No end group written: not given here.

Target: T1, NPY Y2 receptor
T1 chain: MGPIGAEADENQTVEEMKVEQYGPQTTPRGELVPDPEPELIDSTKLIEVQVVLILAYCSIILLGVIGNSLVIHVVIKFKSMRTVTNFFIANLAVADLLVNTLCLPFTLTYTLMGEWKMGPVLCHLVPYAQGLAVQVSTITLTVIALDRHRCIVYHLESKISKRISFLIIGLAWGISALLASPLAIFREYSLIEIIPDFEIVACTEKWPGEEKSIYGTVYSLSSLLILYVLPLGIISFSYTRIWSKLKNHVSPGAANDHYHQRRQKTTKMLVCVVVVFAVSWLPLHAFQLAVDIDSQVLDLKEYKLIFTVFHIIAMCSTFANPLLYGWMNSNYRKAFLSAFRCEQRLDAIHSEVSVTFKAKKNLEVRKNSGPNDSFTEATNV
Test: receptor-binding study on a cell line expressing the NPY Y2 receptor

Binder: Ac-LRHYLNLLTRQRY (ends and bridges not checked, also called Y2A; Y2R selective agonist) [N-acetyl (Leu^28, Leu^31) NPY (24-36)]
- IC50: 1.3 nM
